Where “and” joins values, the source holds several entries; their conditions need not be identical. Equal values may be shown once. Read-outs that look alike come from different tables or passages of the source. Values belong to the molecule of their own block, whether it stands above or below them.
Assays:
Experiment in all cases: EPR
[1] = target: Sso1pHT spin-labeled cysteine mutant at position 269 (yeast) (UniProt P32867)
[2] = target: Sso1pHT spin-labeled cysteine mutant at position 269 (yeast) (UniProt P32867); remark: listed apart in the source
[3] = target: Sso1pHT spin-labeled cysteine mutant at position 272 (yeast) (UniProt P32867)
[4] = target: Sso1pHT spin-labeled cysteine mutant at position 272 (yeast) (UniProt P32867); remark: listed apart in the source
[5] = target: Sso1pHT spin-labeled cysteine mutant at position 284 (yeast) (UniProt P32867)
[6] = target: Sso1pHT spin-labeled cysteine mutant at position 284 (yeast) (UniProt P32867); remark: listed apart in the source
EPR = target: the molecule itself

stoichiometry N [1]: > 3
ln K (equilibrium constant of nM to Mn, concentration as protein:lipid ratio) [2]: 18.4
stoichiometry N [2]: 4
Molecule: Sso1pHT spin-labeled cysteine mutant at position 269 (from UniProt P32867 185-290) (domain or fragment)

stoichiometry N [3]: > 3
ln K (equilibrium constant of nM to Mn, concentration as protein:lipid ratio) [4]: 18.4
stoichiometry N [4]: 4
Molecule: Sso1pHT spin-labeled cysteine mutant at position 272 (from UniProt P32867 185-290) (domain or fragment)

stoichiometry N [5]: > 3
ln K (equilibrium constant of nM to Mn, concentration as protein:lipid ratio) [6]: 18.4
stoichiometry N [6]: 4
Molecule: Sso1pHT spin-labeled cysteine mutant at position 284 (from UniProt P32867 185-290) (domain or fragment)

B1: Sso1pHT I273C, spin-labeled (domain or fragment, yeast, UniProt P32867 185-290, looked up)
chain: EAKTALAEVQARHQELLKLEKSMAELTQLFNDMEELVIEQQENVDVIDKNVEDAQLDVEQGVGHTDKAVKSARKARKNKIRAWLIVFACIVVVVVVVVVPAVVKTR
modifications: MTSSL nitroxide spin label on the cysteine at 273
ln K (equilibrium constant of nM to Mn, concentration as protein:lipid ratio) (EPR): 18.4
stoichiometry N (EPR): 4 and ≥ 3

Reference: publication PMC2575085 (Nature structural & molecular biology, 2008)
